From patent US20120014998A1 come the findings set out here.

The experiment has as its target GroEL (E. coli Cpn60) (E. coli) (UniProt P0A6F5). Kind of experiment: cell-based or functional assay.

GroEL (E. coli Cpn60) (E. coli), sequence (P0A6F5 2-548 limits assumed): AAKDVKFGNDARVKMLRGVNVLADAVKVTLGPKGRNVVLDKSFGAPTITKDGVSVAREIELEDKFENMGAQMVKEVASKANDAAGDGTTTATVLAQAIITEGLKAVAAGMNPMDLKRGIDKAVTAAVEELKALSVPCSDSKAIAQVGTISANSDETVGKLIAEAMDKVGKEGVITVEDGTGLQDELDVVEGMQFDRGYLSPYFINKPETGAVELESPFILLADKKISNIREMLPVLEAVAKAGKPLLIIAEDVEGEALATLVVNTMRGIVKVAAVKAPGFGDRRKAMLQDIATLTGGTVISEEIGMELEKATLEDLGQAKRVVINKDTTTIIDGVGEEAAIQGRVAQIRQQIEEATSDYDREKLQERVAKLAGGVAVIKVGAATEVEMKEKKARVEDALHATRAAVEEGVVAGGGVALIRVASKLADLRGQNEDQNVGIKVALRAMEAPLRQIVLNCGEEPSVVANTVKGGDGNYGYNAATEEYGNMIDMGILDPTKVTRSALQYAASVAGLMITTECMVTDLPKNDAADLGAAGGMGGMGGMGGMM

B1: E. coli Cpn10 (GroES) (protein)
chain: MNIRPLHDRVIVKRKEVETKSAGGIVLTGSAAAKSTRGEVLAVGNGRILENGEVKPLDVKVGDIVIFNDGYGVKSEKIDNEEVLIMSESDILAIVEA
B1: the Refolding activity (% of Ala-Cpn10) (% of Ala-Cpn10) turned out to be 109.
